Holding throughout (experiment): SEC-MALS
On the technique in general: Size exclusion chromatography separates by hydrodynamic size, large species first.

For test [1], the target named is QatB (untagged, co-expressed with His6-QatC) (Escherichia coli NCTC9009).
Test [2] concerns the target His6-QatC (co-expressed with QatB) (Escherichia coli NCTC9009).
Test [3] has the same target. The source holds these as a separate data set.

Where two headings read alike, the source gives them in different places.

For 2 substances, stoichiometry N results are on record in article doi:10.1101/2025.11.03.686418.

One may read the stoichiometry N as the number of molecules, sites or subunits per partner or assembly.

Turning to QatD (untagged, co-expressed) (enzyme), in test [1], the stoichiometry N was 1.
As for “QatB (untagged, co-expressed with His6-QatC) (natural protein)”, the stoichiometry N in test [2] and in test [3] was 1 each time.
